Laboratory results from article PMC2597375 (Nature structural & molecular biology, 2008).
Numbering of substitutions follows the chain as printed. In names and notes the source's numbering stands. Where no end group is shown, it is not given here. [ ]: non-standard residue; d: D form. pS = N[C@@H](COP(=O)(O)O)C(=O)O

Columns and labels:
[1] = target: unlabeled double-repeat CTD-Ser2P/Ser5P peptide (S. cerevisiae); test: fluorescence polarisation
[2] = target: unlabeled double-repeat CTD-Ser5P peptide (S. cerevisiae); test: fluorescence polarisation
[3] = target: T1, Nrd1_(6–151) K21D (S. cerevisiae, UniProt P53617 6-151, K21D); test: fluorescence polarisation
T1 sequence: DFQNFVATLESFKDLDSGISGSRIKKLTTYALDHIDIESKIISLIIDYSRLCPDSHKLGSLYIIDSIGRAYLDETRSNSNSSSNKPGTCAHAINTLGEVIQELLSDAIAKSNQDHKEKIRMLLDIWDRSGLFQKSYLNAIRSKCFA

[4] = target: T2, Nrd1_(6–151) S22D (S. cerevisiae, UniProt P53617 6-151, S22D); test: fluorescence polarisation
T2 sequence: T1 sequence with D16K, S17D

[5] = target: T3, Nrd1_(6–151) I130R (S. cerevisiae, UniProt P53617 6-151, I130R); test: fluorescence polarisation
T3 sequence: T1 sequence with D16K, I125R

[6] = target: T4, Nrd1_(6–151) wild-type (S. cerevisiae, UniProt P53617 6-151); test: fluorescence polarisation
T4 sequence: T1 sequence with D16K

[7] = target: T5, Nrd1_(6–151) L20D (S. cerevisiae, UniProt P53617 6-151, L20D); test: fluorescence polarisation
T5 sequence: T1 sequence with L15D, D16K

[8] = target: T6, Nrd1_(6–151) K21P (S. cerevisiae, UniProt P53617 6-151, K21P); test: fluorescence polarisation
T6 sequence: T1 sequence with D16P

[9] = tested on: CTD; test: CTD binding of Nrd1 variants; conditions: point mutants: fluorescence anisotropy, Table 1; deletions: data not shown
[10] = tested on: Pol II; format: binding, S. cerevisiae; conditions: whole-cell extracts, IgG purification, anti-CTD Ser5P (H14) immunoblot
[11] = target: T7, Nrd1_(6–224) (S. cerevisiae, UniProt P53617 6-224); test: ITC
T7 sequence: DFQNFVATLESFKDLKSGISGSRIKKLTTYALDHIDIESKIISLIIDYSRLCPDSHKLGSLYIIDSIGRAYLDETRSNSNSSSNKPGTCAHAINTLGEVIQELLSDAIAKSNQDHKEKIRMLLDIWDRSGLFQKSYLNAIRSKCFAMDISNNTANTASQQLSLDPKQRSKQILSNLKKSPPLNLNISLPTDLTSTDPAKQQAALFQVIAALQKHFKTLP

Molecule: Nrd1_(6–151) wild-type (from UniProt P53617 6-151) (domain or fragment)
- Kd [1]: 16 µM
- Kd [2]: 40 µM

Molecule: Nrd1_(6–151) L20D (from UniProt P53617 6-151) (domain or fragment)
- Kd [1]: 19 µM

Molecule: Nrd1_(6–214) wild-type (from UniProt P53617 6-214) (domain or fragment)
- Kd [2]: 48 µM

B1: Nrd1_(6–151) K21P (domain or fragment)
chain: T1 sequence with D16P
- Kd [1]: 48 µM
- Kd [2]: 70 µM

B2: Nrd1_(6–151) K21D (domain or fragment)
chain: T1 sequence
- Kd [1]: 70 µM
- Kd [2]: 95 µM

B3: Nrd1_(6–151) S22D (domain or fragment)
chain: T1 sequence with D16K, S17D
- Kd [1]: 100 µM
- Kd [2]: 140 µM

B4: Nrd1_(6–151) D70R (domain or fragment)
chain: T1 sequence with D16K, D65R
- Kd [1]: 100 µM
- Kd [2]: 680 µM

B5: Nrd1_(6–151) I130R (domain or fragment)
chain: T1 sequence with D16K, I125R
- Kd [1]: 27 µM
- Kd [2]: 215 µM

Molecule: Y[pS]PTSPSY[pS]PTSPS [unlabeled double-repeat CTD-Ser2P peptide]
- Kd [3]: 610 µM
- Kd [4]: 470 µM
- Kd [5]: 550 µM
- Kd [6]: 390 µM
- Kd [7]: 560 µM
- Kd [8]: 380 µM

B6: Nrd1_307–560: containing only the RNA binding region and the C-terminal region (protein)
chain: PDELNVSNNPHYRPKPVSYDSTLPPDHIKVYSRTLFIGGVPLNMKEWDLANVLKPFAEVQSVILNNSRKHAFVKVYSRHEAENVLQNFNKDGALPLRTRWGVGFGPRDCCDYQHGYSIIPMHRLTDADKKWSVSAQWGGTSGQPLVTGIVFEEPDIIVGEGVSSKAISQKMPTDSGRNGPRSGKPNKSGSISSISPVPYGNAPLASPPPQQYVQPMMQQPYGYAPNQPLPSQGPAAAAPPVPQQQFDPTAQLNS
- CTD binding of Nrd1 variant [9]: no CTD binding

B7: Nrd1Δ151–214 (protein)
chain: MQQDDDFQNFVATLESFKDLKSGISGSRIKKLTTYALDHIDIESKIISLIIDYSRLCPDSHKLGSLYIIDSIGRAYLDETRSNSNSSSNKPGTCAHAINTLGEVIQELLSDAIAKSNQDHKEKIRMLLDIWDRSGLFQKSYLNAIRSKCFALQKHFKTLPSHTSVGTVAPPQAHTITEYGSRRERERERERYNSRRNRSRSPPAPFSQPSTGRKDRYPSVAQDQYSIGAPNTTFGTNNHHLYPDELNVSNNPHYRPKPVSYDSTLPPDHIKVYSRTLFIGGVPLNMKEWDLANVLKPFAEVQSVILNNSRKHAFVKVYSRHEAENVLQNFNKDGALPLRTRWGVGFGPRDCCDYQHGYSIIPMHRLTDADKKWSVSAQWGGTSGQPLVTGIVFEEPDIIVGEGVSSKAISQKMPTDSGRNGPRSGKPNKSGSISSISPVPYGNAPLASPPPQQYVQPMMQQPYGYAPNQPLPSQGPAAAAPPVPQQQFDPTAQLNSLMNMLNQQQQQQQQS
modifications: left off: TAP (with Protein A module), end not stated, kept
- Association with Pol II [10]: greatly reduced association with Pol II

B8: Nrd1Δ6–150 (protein)
chain: MQQDDAMDISNNTANTASQQLSLDPKQRSKQILSNLKKSPPLNLNISLPTDLTSTDPAKQQAALFQVIAALQKHFKTLPSHTSVGTVAPPQAHTITEYGSRRERERERERYNSRRNRSRSPPAPFSQPSTGRKDRYPSVAQDQYSIGAPNTTFGTNNHHLYPDELNVSNNPHYRPKPVSYDSTLPPDHIKVYSRTLFIGGVPLNMKEWDLANVLKPFAEVQSVILNNSRKHAFVKVYSRHEAENVLQNFNKDGALPLRTRWGVGFGPRDCCDYQHGYSIIPMHRLTDADKKWSVSAQWGGTSGQPLVTGIVFEEPDIIVGEGVSSKAISQKMPTDSGRNGPRSGKPNKSGSISSISPVPYGNAPLASPPPQQYVQPMMQQPYGYAPNQPLPSQGPAAAAPPVPQQQFDPTAQLNSLMNMLNQQQQQQQQS
modifications: left off: TAP (with Protein A module), end not stated, kept
- Association with Pol II [10]: greatly reduced association with Pol II

Molecule: ENVNYDLLQKQVKYIMDSNMLNLPQFQHLPQEEKMSAILAMLNSN (domain or fragment) [Nab3_(204–248)]
- Kd [11]: 0.16 µM
- stoichiometry N [11]: 1
